# Assay results published in publication PMC9198364 (Molecular Therapy. Methods & Clinical Development, 2022).
# B1: soluble AAV receptor (AAVR) extracellular fragment containing PKD1-5 (domain or fragment)
# chain: RKNRPPIAIVSPQFQEISLPTTSTVIDGSQSTDDDKIVQYHWEELKGPLREEKISEDTAILKLSKLVPGNYTFSLTVVDSDGATNSTTANLTVNK
# Tests used:
# [1] = target: AAVPHP.eB capsid (recombinant AAVPHP.eB particles) (adeno-associated virus 9 (parental serotype)) (UniProt Q6JC40); experiment: SPR
# [2] = target: adeno-associated virus (AAV) 9 capsid (recombinant AAV9 particles) (adeno-associated virus 9, UniProt Q6JC40 1-736); experiment: SPR
binder,measurement,setting,value
B1,Kd,[1],274 nM
same,Kd,[2],138 nM
